This data set has as its target W-SCAT protein (Venus - caspase 3 substrate site - Venus, expressed from pRSETB/W-SCAT in Escherichia coli).

For 1 protein, Fluorescent anisotropy (mA) of W-SCAT after 2 hours results are on record in patent US20060275822.

B1: active caspase 3 (CPP32, MBL) (protein)
chain: SGISLDNSYKMDYPEMGLCIIINNKNFHKSTGMTSRSGTDVDAANLRETFRNLKYEVRNKNDLTREEIVELMRDVSKEDHSKRSSFVCVLLSHGEEGIIFGTNGPVDLKKITNFFRGDRCRSLTGKPKLFIIQACRGTELDCGIETDSGVDDDMACHKIPVEADFLYAYSTAPGYYSWRNSKDGSWFIQSLCAMLKQYADKLEFMHILTRVNRKVATEFESFSFDATFHAKKQIPCIVSMLTKELYFYH
For B1, the Fluorescent anisotropy (mA) of W-SCAT after 2 hours at 37 C with 1 unit of active caspase 3, measured with Beacon (control without casp3: 225.8) stood at 276 mA.
